US20160362487A1 (Regeneron, published 2016)

T1: cynomolgus monkey IL-33 expressed with a C-terminal hexahistidine tag (cynomolgus monkey)
T1 construct: also called MfIL-33-6His; Mf-IL-33-6His
T1 chain: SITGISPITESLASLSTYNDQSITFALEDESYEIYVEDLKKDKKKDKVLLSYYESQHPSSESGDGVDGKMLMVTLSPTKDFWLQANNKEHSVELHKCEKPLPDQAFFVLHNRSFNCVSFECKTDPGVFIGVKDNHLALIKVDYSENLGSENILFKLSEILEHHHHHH

T2: human IL-33 (R&D Systems, #3625-IL-010/CF) (human, UniProt O95760 112-270)
T2 construct: Commercial recombinant protein; also called hIL-33; interleukin-33
T2 sequence (looked up): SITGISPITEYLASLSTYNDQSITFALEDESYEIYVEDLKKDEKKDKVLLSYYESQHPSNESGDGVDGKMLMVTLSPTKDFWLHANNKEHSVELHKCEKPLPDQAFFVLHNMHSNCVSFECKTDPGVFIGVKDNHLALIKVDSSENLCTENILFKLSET

B1: H1M9565N (antibody, mouse IgG1, V domains shown)
VH: QVTLKESGPVLVKPTESLTLTCSVSGFSLSNVRMGVSWIRQSPGKALEWLAHIFSNDEKSYTTSLKTRLTISKDTSRSQVVLTMTDMDPGDTATYYCARIRNLAFNYWGQGTLVTVSS
VL: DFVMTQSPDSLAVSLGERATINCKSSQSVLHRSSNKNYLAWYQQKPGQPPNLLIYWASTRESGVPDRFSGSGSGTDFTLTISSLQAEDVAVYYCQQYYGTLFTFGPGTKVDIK
notes: Human variable domains, mouse IgG1 Fc (H1M)
B2: H4H9629P (antibody, human IgG4, V domains shown)
VH: EVQLVESGGGLVQPGGSLRLSCAASGFTFRSFAMSWVRQAPGKGLELVSDLRTSGGSTYYADSVKGRLTISRDNSKNTLYLQMNSLRAEDTAVYYCAKSHYSTSWFGGFDYWGQGTLVTVSS
VL: DIQMTQSPSSVSASVGDRVTITCRASQGFSSWLAWYQQKPGKAPKLLIYAASSLQSGVPSRFSGSGSGTDFTLTITNLQPEDFATYYCQQANSFPLTFGGGTKVEIK
notes: Human IgG4 Fc (H4H)
B3: H4H9660P (antibody, human IgG4, V domains shown)
VH: EVQLVESGGGLVQPGGSLRLSCAASGITLSSYGMSWVRQAPGKGLEWVASIFGSGGGPYYADSVKGRFTMSRDNSKNTLYLQMNSLRAEDTAVYYCAKDRYSGSYYGGFDYWGRGTLVTVSS
VL: DIQMTQSPSSVSASVGDRVTITCRASQGITSWLAWYQQKPGKAPTLLIYAASSLQTGVPSRFSGSGSGTDFTLTISSLQPEHFATYYCQQANSFPPTFGGGTKVEIK
notes: Human IgG4 Fc (H4H)
B4: H4H9659P (antibody, human IgG4, V domains shown)
VH: QVQLVQSGAEVKKPGASVKVSCKASGYTFNSYGISWVRQAPGQGLEWMGWISSHNGNSHYVQKFQGRVSMTTDTSTSTAYMELRSLRSDDTAVYYCARHSYTTSWYGGFDYWGQGTLVTVSS
VL: DIQMTQSPSSVSASVGDRVTITCRASQGFSSWLAWYQQKPGKAPQLLIYAASSLQSGVPSRFSGSGSGSDFTLTISSLQPEDFATYYCQQANSFPLTFGGGTKVEIK
notes: Human IgG4 Fc (H4H)
B5: H4H9633P (antibody, human IgG4, V domains shown)
VH: EVQLVESGGGLVQPGGSLRLSCAASGFTFSSYVMSWVRQAPGKGLEWVSSISGNGGSTNYADSVKGRFTISRDNSKNTLFLEMNSLRAEDTAVYYCAKSLGTTTTFLGFDYWGQGTLVTVSS
VL: DIQMTQSPSSVSASVGDRVTITCRASQGISSWLAWYQQKPGKAPKLLIYAASSLQSGVPSRFSGSGSGTYFTLTISSLQPEDFATYYCQQANSFPLTFGGGTKVEIK
notes: Human IgG4 Fc (H4H)
B6: H4H9640P (antibody, human IgG4, V domains shown)
VH: QVQLQESGPGLVKPSETLSLTCTVSGGSISSYYWSWIRQPPGKGLELIGYIYYSGSTNYNPSLKSRVTISVDTSKNHFSLKLSSVTAADTAVYYCARSQYTSSWYGSFDIWGQGTMVTVSS
VL: DIQMTQSPSSVSASVGDRVTITCRASQGISTWLAWFQQKPGKAPKLLIYAASTLQGGVPSRFSGSGSGPEFTLTISSLQPEDFATYYCQQANSFPWTFGQGTKVEIK
notes: Human IgG4 Fc (H4H)
B7: H1M9566N (antibody, mouse IgG1, V domains shown)
VH: EVQLLESGGDLVQPGGSLRLSCAASGFTFSSYAMSWVRQAPGKGLEWVSVISGSGSSTDYADSVKGRFTISRDNSRDTLHLQMNSLRAEDTAVYYCAKTFYYFYGLDVWGQGTTVTVSS
VL: DIQMTQSPSSLSASLRDRVTITCRASQGISNYLAWYQQKPGKVPKVLIYAASTLQSGVPSRFSGSGSGTVFTLTISSLQTEDVATYYCQKYSSAPFTFGPGTKVDIK
notes: as for B1
B8: H1M9568N (antibody, mouse IgG1, V domains shown)
VH: QVLLVQSGAEVKKPGATVKVSCKASGSTFTGYYMHWVRQAPGQGLEWMGWINPNNGGTNYAQKFQGRVTMTRDTSISTAYMELSRLRSDDTAVYYCARELRYNWKSWGQGTLVTVSS
VL: EIVLTQSPGTLSLSPGERVTLSCRASQSVGRPYLAWYQQIPGQAPRLLIYGASSRATDIPDRFSGNGSGTDFTLTISRLEPEDFAVYYCQQYDNSPYTFGQGTRLEIK
notes: as for B1

How the values were obtained:
[1] = biological target: T1, cynomolgus monkey IL-33 expressed with …; experiment: SPR 25C, pH6.0 chase, mAb captured
Method: (§1) Equilibrium dissociation constants (KD values) for IL-33 binding to purified anti-IL-33 monoclonal antibodies were determined using a real-time surface plasmon resonance biosensor using a Biacore 4000 instrument. The Biacore sensor surface was first derivatized by amine coupling with either a polyclonal rabbit anti-mouse antibody (GE, # BR-1008-38) or with a monoclonal mouse anti-human Fc antibody (GE, # BR-1008-39) to capture anti-IL-33 monoclonal antibodies expressed with mouse or with human IgG4 constant regions, respectively. All Biacore binding studies were performed in 0.01M ADA pH 7.4, 0.15M NaCl, 3 mM EDTA, and 0.05% v/v Surfactant Tween-20 (ABS-ET running buffer). […] Association of either hIL-33 or MfIL-33-6His to the captured monoclonal antibody was monitored for 4 minutes and their dissociation in ABS-ET running buffer was monitored for 10 minutes. The effect of reduced pH on the binding of each anti-IL-33 antibody to either hIL-33 or MfIL-33-6His was studied using an in-line pH chase assay format in 0.01M ADA pH 6.0, 0.15M NaCl, 3 mM EDTA, and 0.05% v/v Surfactant Tween-20 (ABS-ET pH6 buffer). To achieve this, association of either hIL-33 or MfIL-33-6His to the captured monoclonal antibody was monitored for 4 minutes in ABS-ET running buffer. Following a 30 second dissociation of either hIL-33 or MfIL-33-6His in ABS-ET running buffer, ABS-ET pH6 buffer was injected for 3 minutes, and the analyte dissociation under the low-pH conditions was measured. All the binding kinetic experiments were performed at both 25° C. and 37° C. Kinetic association (kₐ) and dissociation (kd) constants were determined by fitting the real-time sensorgrams to a 1:1 binding model using Scrubber 2.0c curve fitting software. Binding dissociation equilibrium constants (KD) and dissociative half-lives (t½) were calculated from the kinetic rate constants as: […]

[2] = biological target: T1, cynomolgus monkey IL-33 expressed with …; experiment: competition ELISA, 150 pM MfIL-33-6His on coated hST2-hFc
Method: The ability of anti-IL-33 antibodies to block either human IL-33 (hIL-33) or cynomologus monkey IL-33 binding to the human ST2 receptor was measured using a competition sandwich ELISA. […] The antibody/IL-33 mixtures were incubated for 1 hour at room temperature before they were transferred to the hST2-hFc-coated microtiter plates. After incubating for 1 hour at room temperature, the wells were then washed, and plate-bound biotin-hIL-33 was detected with streptavidin conjugated with horse-radish peroxidase (HRP) (Thermo Scientific, Cat # N200), and plate-bound MfIL-33-6His was detected with a HRP conjugated anti-His monoclonal antibody (Qiagen, #34460). All samples were developed with a TMB solution (BD biosciences, #51-2607KC) to produce a colorimetric reaction and then quenched by acidification with 1M sulfuric acid before measuring absorbance at 450 nm on a Victor X5 plate reader. Data analysis was performed using a sigmoidal dose-response model within Prism™ software. […] Percent blockade was calculated as the ratio of the reduction in signal observed in the presence of antibody relative to the difference between the signal with IL-33 alone and background (signal from HRP-conjugated secondary antibody or streptavidin alone). The absorbance measured for the constant concentration of biotin-hIL-33 or MfIL-33-6His alone is defined as 0% blocking and the absorbance measured for no added IL-33 is defined as 100% blocking.

[3] = biological target: T2, human IL-33 (R&D Systems, …); experiment: BLI; hIL-33 pre-mixed with mAb-2 Isotype control 1
Method: (§2) Binding competition between a panel of different anti-IL-33 monoclonal antibodies was determined using a real time, label-free bio-layer interferometry assay on an Octet® HTX biosensor (ForteBio, A Division of Pall Life Sciences). The experiment was performed at 25° C. using a buffer of 0.01M HEPES pH7.4, 0.15M NaCl, 0.05% v/v Surfactant Tween-20, and 0.1 mg/ml BSA (HBS-ET kinetics buffer) with the plate shaking at a speed of 1000 rpm. To assess whether two antibodies were able to compete with one another for binding to human IL-33, a pre-mix assay format was used where 100 nM of human IL-33 (R&D Systems; #3625-IL-010/CF) was pre-mixed with 500 nM of different anti-IL-33 monoclonal antibodies (subsequently referred to as mAb-2) for at least 2 hours prior to running the binding competition assay. […] Following the capture step, unoccupied anti-mouse Fc polyclonal antibody and anti-human Fc polyclonal antibody on the Octet biosensors were saturated by submerging them for 4 minutes into wells containing 200 μg/mL of a non-specific monoclonal antibody with a mouse Fc or with a human Fc, respectively. Finally, the Octet biosensors were immersed for 4 minutes into wells containing the pre-mixed samples of 100 nM of human IL-33 and 500 nM of mAb-2. At the end of each cycle, the non-covalently captured anti-IL-33 antibodies along with the bound pre-complex of human IL-33 and mAb-2 were removed from the biosensors using three alternate 20 second immersions into 10 mM HCl followed by submerging into HBS-ET kinetics buffer. The biosensors were washed in HBS-ET kinetics buffer in between every step of the experiment. The real-time binding response was monitored during the binding events, and the binding response (in units of nm) at the end of every step was recorded.

[4] = biological target: T2, human IL-33 (R&D Systems, …); experiment: BLI; hIL-33 pre-mixed with mAb-2 Isotype control 2
Method: as §2

[5] = biological target: T2, human IL-33 (R&D Systems, …); experiment: SPR 25C, pH6.0 chase, mAb captured
Method: as §1

Binder | koff [1] [s⁻¹] | t½ [1] [min] | t½ Ratio (pH 7.4/pH 6.0) [1] | % Maximum blocking [2] [%] | IC50 [2] [nM] | mAb-1 Binding to the Pre-complex of mAb-2 & hIL-33 [3] [nm] | mAb-1 Binding to the Pre-complex of mAb-2 & hIL-33 [4] [nm] | koff [5] [s⁻¹] | t½ [5] [min] | t½ Ratio (pH 7.4/pH 6.0) [5]
B1 | 0.000143 | 81 | 2 | 86 | 12 | -0.01 | 0.03 |  |  | 
B2 | 0.0358 | 0.3 | 2.7 |  |  | 0.22 | 0.14 | 0.00128 | 9 | 5.7
B3 | 0.00108 | 11 | 0.7 | 68 | 4.2 | 0.21 | 0.15 | 0.000708 | 16 | 3.2
B4 | 0.000123 | 94 | 0.3 | 92 | 0.6 | 0.17 | 0.09 | 0.000664 | 17 | 3.9
B5 | 0.00287 | 4 | 0.3 |  |  | 0.21 | 0.15 | 0.00081 | 14 | 2.9
B6 | 0.000501 | 23 | 0.4 | 73 | 3.5 | 0.18 | 0.1 | 0.000657 | 18 | 2.8
B7 | 0.000126 | 91 | 1.3 | 41 | 0.22 | 0.06 | 0.1 | 0.00011 | 105 | 11
B8 | 0.000302 | 38 | 1.2 | 38 | 0.84 | 0.05 | 0.1 | 0.000178 | 65 | 1.4
